Measured values: paper PMC12624790

Biological target: His6-3C-SUMO-Sec22 TMD-thrombin-HiBiT

B1: Δ1-32 Msp1 (enzyme)
chain: DVESGPLSGKSRESKAKQSLQWEKLVKRSPALAEVTLDAYERTILSSIVTPDEINITFQDIGGLDPLISDLHESVIYPLMMPEVYSNSPLLQAPSGVLLYGPPGCGKTMLAKALAKESGANFISIRMSSIMDKWYGESNKIVDAMFSLANKLQPCIIFIDEIDSFLRERSSTDHEVTATLKAEFMTLWDGLLNNGRVMIIGATNRINDIDDAFLRRLPKRFLVSLPGSDQRYKILSVLLKDTKLDEDEFDLQLIADNTKGFSGSDLKELCREAALDAAKEYIKQKRQLIDSGTIDVNDTSSLKIRPLKTKDFTKKLRMDATSTLSSQPLD
percent of substrate extracted from standard liposomes by Msp1 with ATP (split-luciferase extraction assay, 30 min, 30 °C): 10%
